# Source: paper PMC4538837, “Structural basis for substrate recognition and processive cleavage mechanisms of the trimeric exonuclease PhoExo I”
# How the values were obtained:
# [1] = biological target: C-terminal 4×His-tagged PhoExo I (PhoExo I-CHis) (Pyrococcus horikoshii OT3); experiment: SEC; gel filtration on Superdex 200 HR 10/30, 10 mM Tris HCl pH 8.0, 200 mM NaCl; size estimated against standard proteins
# [2] = biological target: PhoExo I (native, untagged) (Pyrococcus horikoshii OT3); experiment: crystal structure; substrate-free native PhoExo I, three crystal forms (crystals 1-3); sitting-drop vapour diffusion at 20°C; trimer in the asymmetric unit (crystals 1, 2) or by the crystallographic 3-fold axis (crystal 3)
# [3] = biological target: PhoExo I-CHis D80N mutant (Pyrococcus horikoshii OT3); experiment: crystal structure; PhoExo I-CHis D80N cocrystallised with 7-nt ssDNAs (poly-dA, poly-dC, poly-dT; poly-dT crystal also soaked with 0.1 M MgCl2); 0.1 M MES pH 5.6-5.7, 12-14% PEG6000, 1 M LiCl
# [4] = biological target: T1, PhoExo I-CHis (wild type) (Pyrococcus horikoshii OT3, UniProt A0A060P168 1-229); experiment: EMSA; 0.1 mM EDTA, no Mg2+; affinity lower than for RNA; EMSA: 25 mM Hepes-NaOH pH 7.5, 50 mM NaCl, 0.1 mM EDTA, 0.1 mg/ml BSA, 5 nM probe, 0-1600 nM trimer, 5 min 55 C, then 0.05% glutaraldehyde 10 min at room temperature; 7.5% native PAGE in TBE; settings: protein: recombinant; tags: C-terminal 4xHis; chain copies: 3; label: 5'-32P; single strand
# [5] = biological target: T1, PhoExo I-CHis (wild type); experiment: EMSA; 0.1 mM EDTA, no Mg2+; stronger than for the DNA of same sequence; EMSA: 25 mM Hepes-NaOH pH 7.5, 50 mM NaCl, 0.1 mM EDTA, 0.1 mg/ml BSA, 5 nM probe, 0-1600 nM trimer, 5 min 55 C, then 0.05% glutaraldehyde 10 min at room temperature; 7.5% native PAGE in TBE; settings: protein: recombinant; tags: C-terminal 4xHis; chain copies: 3; label: 5'-32P; single strand
# T1 sequence (A0A060P168 entry or part of it): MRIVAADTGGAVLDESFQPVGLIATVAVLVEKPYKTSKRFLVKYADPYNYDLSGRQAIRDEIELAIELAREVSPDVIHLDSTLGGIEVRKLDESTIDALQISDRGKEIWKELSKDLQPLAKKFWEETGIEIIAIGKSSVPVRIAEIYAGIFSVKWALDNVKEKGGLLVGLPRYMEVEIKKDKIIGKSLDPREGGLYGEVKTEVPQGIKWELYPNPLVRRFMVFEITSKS
molecule,measurement,setting,value
C-terminal 4×His-tagged PhoExo I (PhoExo I-CHis) (enzyme),stoichiometry N,[1],3
"PhoExo I (native, untagged) (enzyme)",stoichiometry N,[2],3
PhoExo I-CHis D80N mutant (enzyme),stoichiometry N,[3],3
AGCTATGACCATGATTACGAATTGCTT (ssDNA) [27-nt DNA],binding result,[4],binds
AGCUAUGACCAUGAUUACGAAUUGCUU (ssRNA) [27-nt RNA],binding result,[5],binds
